Laboratory results as given in PMC10175771.

Molecular target: P. falciparum cytochrome c-2 (PF3D7_1311700), recombinant, hemylated, N-terminal His6 tag (P. falciparum) (UniProt Q8I6T6)
Experiment: crystal structure

Substance “P. falciparum cytochrome c-2 (PF3D7_1311700), recombinant, hemylated, N-terminal His6 tag (from UniProt Q8I6T6 1-159) (natural protein)” has a stoichiometry N of 2.
